Usually Ki stands for a dissociation constant, usually derived from enzyme kinetics or from competition with a known ligand. A lower Ki goes with higher affinity.

Positions of bridges follow the written chain, without caps; N, C: chain ends. Non-standard residues stand in square brackets, D forms with d. R8 = C=CCCCCCC[C@@](C)(N)C(=O)O; S5 = C=CCCC[C@](C)(N)C(=O)O; Aib = CC(C)(N)C(=O)O

For assay [1], the target named is BCL-2 (UniProt P10415). The assay can be described thus: Ki (Table 8); method not stated.
Sequence of BCL-2 (UniProt P10415) (P10415 1-217 limits assumed): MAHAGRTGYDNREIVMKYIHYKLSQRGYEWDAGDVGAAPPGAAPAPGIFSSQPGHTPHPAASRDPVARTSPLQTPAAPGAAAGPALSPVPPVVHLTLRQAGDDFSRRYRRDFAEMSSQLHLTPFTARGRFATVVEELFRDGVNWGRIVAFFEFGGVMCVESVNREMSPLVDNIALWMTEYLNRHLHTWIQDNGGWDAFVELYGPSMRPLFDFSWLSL
Assay [2] has as its target BCL-XL (UniProt Q07817). The assay can be described thus: Ki (Table 8); method not stated.
Assay [3] concerns the target MCL-1 (UniProt Q07820). The assay can be described thus: Ki (Table 8); method not stated.
Assay [4] concerns the target T1, BCL-XL (UniProt Q07817 1-209).
T1 construct: Target of the Ki columns
The assay can be described thus: Ki (Table 8); method not stated.

For assay [5], the target named is T2, MCL-1 (UniProt Q07820 172-327, limits assumed).
T2 construct: Target of the Ki columns; also called Myeloid cell leukemia 1
T2 sequence (Q07820 172-327 limits assumed): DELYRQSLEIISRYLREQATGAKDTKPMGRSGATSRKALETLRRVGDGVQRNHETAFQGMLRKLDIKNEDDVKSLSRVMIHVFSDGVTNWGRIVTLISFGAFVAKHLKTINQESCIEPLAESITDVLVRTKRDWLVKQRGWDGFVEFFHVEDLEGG
The assay can be described thus: Ki (Table 8); method not stated.

Assay [6] has as its target T3, BCL-2 (UniProt P10415 1-217, limits assumed).
T3 construct: Target of the Ki columns
The assay can be described thus: Ki (Table 8); method not stated.

Assay [7] has as its target T1, BCL-XL. The assay can be described thus: inhibitory constant assay (Table 7); method not stated.
Assay [8] has as its target T2, MCL-1. The assay is described as above.
Assay [9] has as its target T3, BCL-2. Described as above.
Assay [10] deals with T1, BCL-XL. Nature of the assay: Ki (Table 6); method not stated.
The target of assay [11] is T2, MCL-1. The assay can be described thus: Ki (Table 6); method not stated.
Assay [12] deals with T3, BCL-2. The assay can be described thus: Ki (Table 6); method not stated.

T3 sequence (P10415 1-217 limits assumed): as the sequence (P10415 1-217 limits assumed) above
T1 sequence (Q07817 1-209): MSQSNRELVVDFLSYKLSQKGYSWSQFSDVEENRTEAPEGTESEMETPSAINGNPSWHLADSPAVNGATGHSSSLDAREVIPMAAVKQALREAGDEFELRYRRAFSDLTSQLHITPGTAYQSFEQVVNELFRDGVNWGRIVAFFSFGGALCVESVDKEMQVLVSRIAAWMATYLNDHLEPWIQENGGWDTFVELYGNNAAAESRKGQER
Sequence of BCL-XL (UniProt Q07817) (Q07817 1-209): as above
Sequence of MCL-1 (UniProt Q07820) (Q07820 172-327 limits assumed): as the sequence (Q07820 172-327 limits assumed) above

With BIM-SAHBA1 (peptide), the Ki with BCL-2 [1] turned out to be 29.6 nM; with BCL-XL [2], 6.2 nM; in the assay with MCL-1 [3], 2.7 nM.

B1: Cross-linked peptide #15 (peptide)
peptide: Ac-IWIAQALR[R8]IGDEFN[S5]YYARR-NH2
modifications: staple 9-16
SMILES: CC[C@H](C)[C@H](NC(C)=O)C(=O)N[C@@H](Cc1c[nH]c2ccccc12)C(=O)N[C@H](C(=O)N[C@@H](C)C(=O)N[C@@H](CCC(N)=O)C(=O)N[C@@H](C)C(=O)N[C@@H](CC(C)C)C(=O)N[C@@H](CCCNC(=N)N)C(=O)N[C@]1(C)CCCCCCC=CCCC[C@@](C)(C(=O)N[C@@H](Cc2ccc(O)cc2)C(=O)N[C@@H](Cc2ccc(O)cc2)C(=O)N[C@@H](C)C(=O)N[C@@H](CCCNC(=N)N)C(=O)N[C@@H](CCCNC(=N)N)C(N)=O)NC(=O)[C@H](CC(N)=O)NC(=O)[C@H](Cc2ccccc2)NC(=O)[C@H](CCC(=O)O)NC(=O)[C@H](CC(=O)O)NC(=O)CNC(=O)[C@H]([C@@H](C)CC)NC1=O)[C@@H](C)CC
With B1, the Ki with BCL-XL [4] turned out to be 5.2 nM; in the assay with MCL-1 [5], 10.6 nM; with BCL-2 [6], 12.8 nM.

B2: Cross-linked peptide #14 (peptide)
peptide: Ac-RWIAQALR[S5]IGD[S5]LN[Aib]FYAHH-NH2
modifications: staple 9-13
SMILES: CC[C@H](C)[C@H](NC(=O)[C@H](Cc1c[nH]c2ccccc12)NC(=O)[C@H](CCCNC(=N)N)NC(C)=O)C(=O)N[C@@H](C)C(=O)N[C@@H](CCC(N)=O)C(=O)N[C@@H](C)C(=O)N[C@@H](CC(C)C)C(=O)N[C@@H](CCCNC(=N)N)C(=O)N[C@@]1(C)CCCC=CCCC[C@@](C)(C(=O)N[C@@H](CC(C)C)C(=O)N[C@@H](CC(N)=O)C(=O)NC(C)(C)C(=O)N[C@@H](Cc2ccccc2)C(=O)N[C@@H](Cc2ccc(O)cc2)C(=O)N[C@@H](C)C(=O)N[C@@H](Cc2c[nH]cn2)C(=O)N[C@@H](Cc2c[nH]cn2)C(N)=O)NC(=O)[C@H](CC(=O)O)NC(=O)CNC(=O)[C@H]([C@@H](C)CC)NC1=O
Take B2: the Ki with BCL-XL [7] turned out to be 178 nM; with MCL-1 [8] it was 11 nM; with BCL-2 [9], 151 nM; in the assay with BCL-XL [4] it was 114 nM; with MCL-1 [5], 17 nM; in the assay with BCL-2 [6], 215 nM.

B3: Cross-linked peptide #5 (peptide)
peptide: IWIAQALXAIGDAFNAYYA
modifications: N-terminal Ac; Cit at residue 8 (column 153); $r8 at residue 9 (column 154) and $ at residue 16 (column 161), crosslinked; C-terminal NH2
Take B3: the values for the Ki with BCL-XL [10], with MCL-1 [11] and in the assay with BCL-2 [12] were 110 nM, 7.5 nM and 212 nM, respectively.

B4: Cross-linked peptide #7 (peptide)
peptide: Ac-IWIAQALR[R8]IGDAAN[S5]YYA-NH2
modifications: staple 9-16
SMILES: CC[C@H](C)[C@H](NC(C)=O)C(=O)N[C@@H](Cc1c[nH]c2ccccc12)C(=O)N[C@H](C(=O)N[C@@H](C)C(=O)N[C@@H](CCC(N)=O)C(=O)N[C@@H](C)C(=O)N[C@@H](CC(C)C)C(=O)N[C@@H](CCCNC(=N)N)C(=O)N[C@]1(C)CCCCCCC=CCCC[C@@](C)(C(=O)N[C@@H](Cc2ccc(O)cc2)C(=O)N[C@@H](Cc2ccc(O)cc2)C(=O)N[C@@H](C)C(N)=O)NC(=O)[C@H](CC(N)=O)NC(=O)[C@H](C)NC(=O)[C@H](C)NC(=O)[C@H](CC(=O)O)NC(=O)CNC(=O)[C@H]([C@@H](C)CC)NC1=O)[C@@H](C)CC
B4: the results for the Ki in the assay with BCL-XL [10], with MCL-1 [11] and with BCL-2 [12] were 402 nM, 7.5 nM and 140 nM, respectively.

B5: Cross-linked peptide #10 (peptide)
peptide: Ac-IWIAQALR[R8]AGDQFN[S5]YYA-NH2
modifications: staple 9-16
SMILES: CC[C@H](C)[C@H](NC(C)=O)C(=O)N[C@@H](Cc1c[nH]c2ccccc12)C(=O)N[C@H](C(=O)N[C@@H](C)C(=O)N[C@@H](CCC(N)=O)C(=O)N[C@@H](C)C(=O)N[C@@H](CC(C)C)C(=O)N[C@@H](CCCNC(=N)N)C(=O)N[C@]1(C)CCCCCCC=CCCC[C@@](C)(C(=O)N[C@@H](Cc2ccc(O)cc2)C(=O)N[C@@H](Cc2ccc(O)cc2)C(=O)N[C@@H](C)C(N)=O)NC(=O)[C@H](CC(N)=O)NC(=O)[C@H](Cc2ccccc2)NC(=O)[C@H](CCC(N)=O)NC(=O)[C@H](CC(=O)O)NC(=O)CNC(=O)[C@H](C)NC1=O)[C@@H](C)CC
As to B5, the values for the Ki with BCL-XL [10], in the assay with MCL-1 [11] and with BCL-2 [12] were 1.9 nM, 122 nM and 4.8 nM, respectively.

B6: Cross-linked peptide #8 (peptide)
peptide: Ac-IWIAQALR[R8]IGDQAN[S5]YYA-NH2
modifications: staple 9-16
SMILES: CC[C@H](C)[C@H](NC(C)=O)C(=O)N[C@@H](Cc1c[nH]c2ccccc12)C(=O)N[C@H](C(=O)N[C@@H](C)C(=O)N[C@@H](CCC(N)=O)C(=O)N[C@@H](C)C(=O)N[C@@H](CC(C)C)C(=O)N[C@@H](CCCNC(=N)N)C(=O)N[C@]1(C)CCCCCCC=CCCC[C@@](C)(C(=O)N[C@@H](Cc2ccc(O)cc2)C(=O)N[C@@H](Cc2ccc(O)cc2)C(=O)N[C@@H](C)C(N)=O)NC(=O)[C@H](CC(N)=O)NC(=O)[C@H](C)NC(=O)[C@H](CCC(N)=O)NC(=O)[C@H](CC(=O)O)NC(=O)CNC(=O)[C@H]([C@@H](C)CC)NC1=O)[C@@H](C)CC
For B6, the Ki was 24.9 nM in the assay with BCL-XL [10], 1.4 nM in the assay with MCL-1 [11] and 43.9 nM in the assay with BCL-2 [12].

B7: Cross-linked peptide #9 (peptide)
peptide: Ac-IWIAQALR[R8]IADQFN[S5]YYA-NH2
modifications: staple 9-16
SMILES: CC[C@H](C)[C@H](NC(C)=O)C(=O)N[C@@H](Cc1c[nH]c2ccccc12)C(=O)N[C@H](C(=O)N[C@@H](C)C(=O)N[C@@H](CCC(N)=O)C(=O)N[C@@H](C)C(=O)N[C@@H](CC(C)C)C(=O)N[C@@H](CCCNC(=N)N)C(=O)N[C@]1(C)CCCCCCC=CCCC[C@@](C)(C(=O)N[C@@H](Cc2ccc(O)cc2)C(=O)N[C@@H](Cc2ccc(O)cc2)C(=O)N[C@@H](C)C(N)=O)NC(=O)[C@H](CC(N)=O)NC(=O)[C@H](Cc2ccccc2)NC(=O)[C@H](CCC(N)=O)NC(=O)[C@H](CC(=O)O)NC(=O)[C@H](C)NC(=O)[C@H]([C@@H](C)CC)NC1=O)[C@@H](C)CC
As to B7, the results for the Ki with BCL-XL [10], in the assay with MCL-1 [11] and in the assay with BCL-2 [12] were 7.7 nM, 116 nM and 25.6 nM, respectively.

B8: Cross-linked peptide #12 (peptide)
peptide: Ac-IWIAQALR[R8]IGNAFN[S5]YYA-NH2
modifications: staple 9-16
SMILES: CC[C@H](C)[C@H](NC(C)=O)C(=O)N[C@@H](Cc1c[nH]c2ccccc12)C(=O)N[C@H](C(=O)N[C@@H](C)C(=O)N[C@@H](CCC(N)=O)C(=O)N[C@@H](C)C(=O)N[C@@H](CC(C)C)C(=O)N[C@@H](CCCNC(=N)N)C(=O)N[C@]1(C)CCCCCCC=CCCC[C@@](C)(C(=O)N[C@@H](Cc2ccc(O)cc2)C(=O)N[C@@H](Cc2ccc(O)cc2)C(=O)N[C@@H](C)C(N)=O)NC(=O)[C@H](CC(N)=O)NC(=O)[C@H](Cc2ccccc2)NC(=O)[C@H](C)NC(=O)[C@H](CC(N)=O)NC(=O)CNC(=O)[C@H]([C@@H](C)CC)NC1=O)[C@@H](C)CC
With B8, the Ki turned out to be 416 nM in the assay with BCL-XL [10], 195 nM with MCL-1 [11] and 405 nM in the assay with BCL-2 [12].

B9: Cross-linked peptide #16 (peptide)
peptide: IWIAQALRALGDAFNAYFA
modifications: not fully specified; N-terminal Ac; $r8 at residue 9 (column 154) and $ at residue 16 (column 161), crosslinked; hL at residue 10 (column 155); F4F at residue 18 (column 163); C-terminal NH2
With B9, the Ki turned out to be 13 nM with BCL-XL [4] and 27 nM in the assay with MCL-1 [5].

B10: Cross-linked peptide #11 (peptide)
peptide: Ac-IWIAQALA[R8]IGDAFN[S5]YYA-NH2
modifications: staple 9-16
SMILES: CC[C@H](C)[C@H](NC(C)=O)C(=O)N[C@@H](Cc1c[nH]c2ccccc12)C(=O)N[C@H](C(=O)N[C@@H](C)C(=O)N[C@@H](CCC(N)=O)C(=O)N[C@@H](C)C(=O)N[C@@H](CC(C)C)C(=O)N[C@@H](C)C(=O)N[C@]1(C)CCCCCCC=CCCC[C@@](C)(C(=O)N[C@@H](Cc2ccc(O)cc2)C(=O)N[C@@H](Cc2ccc(O)cc2)C(=O)N[C@@H](C)C(N)=O)NC(=O)[C@H](CC(N)=O)NC(=O)[C@H](Cc2ccccc2)NC(=O)[C@H](C)NC(=O)[C@H](CC(=O)O)NC(=O)CNC(=O)[C@H]([C@@H](C)CC)NC1=O)[C@@H](C)CC
For B10, the Ki in the assay with BCL-XL [10] turned out to be 386 nM; with MCL-1 [11], 73.8 nM; with BCL-2 [12] it was 1090 nM.

B11: Cross-linked peptide #13 (peptide)
peptide: Ac-IWIAQAAR[R8]IGDAFN[S5]YYA-NH2
modifications: staple 9-16
SMILES: CC[C@H](C)[C@H](NC(C)=O)C(=O)N[C@@H](Cc1c[nH]c2ccccc12)C(=O)N[C@H](C(=O)N[C@@H](C)C(=O)N[C@@H](CCC(N)=O)C(=O)N[C@@H](C)C(=O)N[C@@H](C)C(=O)N[C@@H](CCCNC(=N)N)C(=O)N[C@]1(C)CCCCCCC=CCCC[C@@](C)(C(=O)N[C@@H](Cc2ccc(O)cc2)C(=O)N[C@@H](Cc2ccc(O)cc2)C(=O)N[C@@H](C)C(N)=O)NC(=O)[C@H](CC(N)=O)NC(=O)[C@H](Cc2ccccc2)NC(=O)[C@H](C)NC(=O)[C@H](CC(=O)O)NC(=O)CNC(=O)[C@H]([C@@H](C)CC)NC1=O)[C@@H](C)CC
As to B11, the figures for the Ki in the assay with BCL-XL [10], with MCL-1 [11] and with BCL-2 [12] were 100000 nM, 501 nM and 100000 nM, respectively.

Values taken from patent US20180273587A1 (AILERON THERAPEUTICS, published 2018).
